Sequences and labels used below:
B1: CD3 × CD33-BspAb42 (bispecific antibody)
chain 1: EVQLVESGGGLVKPGGSLRLSCAASGFTLSSYSMNWVRQAPGKCLEWVSSISRSGSYIYYADSVKGRFTISRDNAKNSLYLQMNSLRAEDTAVYYCAREKWELLYFDYWGQGTLVTVSSGGGGSGGGGSGGGGSGGGGSNFMLTQPHSVSESPGKTVTISCTRSSGSIASNYVQWYQQRPGSSPTTVIYEDNQRPSGVPDRFSGSIDSSSNSASLTISGLKTEDEADYYCQSYDSSNRVFGCGTKLTVLDKTHTCPPCPAPEFEGGPSVFLFPPKPKDTLMISRTPEVTCVVVDVSHEDPEVKFNWYVDGVEVHNAKTKPREEQYNSTYRVVSVLTVLHQDWLNGKEYKCKVSNKALPASIEKTISKAKGQPREPQVYTLPPCREEMTKNQVSLWCLVKGFYPSDIAVEWESNGQPENNYKTTPPVLDSDGSFFLYSKLTVDKSRWQQGNVFSCSVMHEALHNHYTQKSLSLSPGK
chain 2: EVQLVQSGAEVKKPGSSVKVSCKASGYTITDSNIHWVRQAPGQSLEWIGYIYPYNGGTDYNQKFKNRATLTVDNPTNTAYMELSSLRSEDTAFYYCVNGNPWLAYWGQGTLVTVSSASTKGPSVFPLAPSSKSTSGGTAALGCLVKDYFPEPVTVSWNSGALTSGVHTFPAVLQSSGLYSLSSVVTVPSSSLGTQTYICNVNHKPSNTKVDKRVEPKSCDKTHTCPPCPAPEFEGGPSVFLFPPKPKDTLMISRTPEVTCVVVDVSHEDPEVKFNWYVDGVEVHNAKTKPREEQYNSTYRVVSVLTVLHQDWLNGKEYKCKVSNKALPASIEKTISKAKGQPREPQVCTLPPSREEMTKNQVSLSCAVKGFYPSDIAVEWESNGQPENNYKTTPPVLDSDGSFFLVSKLTVDKSRWQQGNVFSCSVMHEALHNRFTQKSLSLSPGK
chain 3: DIQLTQSPSTLSASVGDRVTITCRASESLDNYGIRFLTWFQQKPGKAPKLLMYAASNQGSGVPSRFSGSGSGTEFTLTISSLQPDDFATYYCQQTKEVPWSFGQGTKVEVKRTVAAPSVFIFPPSDEQLKSGTASVVCLLNNFYPREAKVQWKVDNALQSGNSQESVTEQDSKDSTYSLSSTLTLSKADYEKHKVYACEVTHQGLSSPVTKSFNRGEC
B2: CD3 × CD33-BspAb50 (bispecific antibody)
chain 1: not shown
chain 2: B1 chain 2
chain 3: B1 chain 3
B3: CD3 × CD33-BspAb37 (bispecific antibody)
chain 1: not shown
chain 2: B1 chain 2
chain 3: B1 chain 3
B4: CD3 × CD33-BspAb51 (bispecific antibody)
chain 1: not shown
chain 2: B1 chain 2
chain 3: B1 chain 3
B5: CD3 × CD33-BspAb45 (bispecific antibody)
chain 1: EVQLVESGGGLVQPGGSLRLSCAASGFTFSRYSMNWVRQAPGKCLEWVSYISSSSSSIYYADSVKGRFTISRDNAKNSLYLQMNSLRDEDTAVYYCARDRRATLDYWGQGTLVTVSSGGGGSGGGGSGGGGSGGGGSNFMLTQPHSVSESPGKTVTISCTRSSGSIASNYVQWYQQRPGSSPTTVIYEDNQRPSGVPDRFSGSIDSSSNSASLTISGLKTEDEADYYCQSYDSSNHVFGCGTKLTVLDKTHTCPPCPAPEFEGGPSVFLFPPKPKDTLMISRTPEVTCVVVDVSHEDPEVKFNWYVDGVEVHNAKTKPREEQYNSTYRVVSVLTVLHQDWLNGKEYKCKVSNKALPASIEKTISKAKGQPREPQVYTLPPCREEMTKNQVSLWCLVKGFYPSDIAVEWESNGQPENNYKTTPPVLDSDGSFFLYSKLTVDKSRWQQGNVFSCSVMHEALHNHYTQKSLSLSPGK
chain 2: B1 chain 2
chain 3: B1 chain 3

In the test the target is recombinant CD3 proteins. Put plainly: Octet (BLI), bispecific antibody against recombinant CD3 proteins. (In BLI a coated tip is dipped into the sample, and binding shifts an interference pattern.)
For orientation: Kd means the equilibrium constant for the complex coming apart. Usually koff stands for the first-order rate constant of dissociation. In general, kon refers to the second-order rate constant of association. In the case of B1, the Kd was determined as 133 nM, the Response came to 0.51, the off-rate (koff) was determined as 0.0186 s⁻¹ and the kon came to 139000 M⁻¹ s⁻¹.
For B2 the same measures were 125 nM, 0.33, 0.00262 s⁻¹ and 21000 M⁻¹ s⁻¹.
As for B3, the equilibrium dissociation constant (Kd) turned out to be 213 nM, the Response came to 0.34, the off-rate constant (koff) stood at 0.00336 s⁻¹ and the kon was determined as 15800 M⁻¹ s⁻¹.
As to B4, the dissociation constant Kd stood at 74 nM, the Response amounted to 0.26, the koff turned out to be 0.00232 s⁻¹ and the kon worked out at 31400 M⁻¹ s⁻¹.
The like results for B5 were, in that order, 177 nM, 0.58, 0.0529 s⁻¹ and 299000 M⁻¹ s⁻¹.

The values are drawn from patent US20260167721A1 (ABLEXIS, published 2026).
